Target: AccA3, α-subunit of the acyl-CoA carboxylase AccD5-AccA3 complex (Rv3285) (M. tuberculosis, UniProt P96890 1-600)
Test: SEC; […]; 25 mM Tris-HCl pH 8.0, 150 mM NaCl, 1 mM DTT
Details: both partners purified

Chain of AccA3, α-subunit of the acyl-CoA carboxylase AccD5-AccA3 complex (Rv3285) (P96890 whole entry, one chain of several): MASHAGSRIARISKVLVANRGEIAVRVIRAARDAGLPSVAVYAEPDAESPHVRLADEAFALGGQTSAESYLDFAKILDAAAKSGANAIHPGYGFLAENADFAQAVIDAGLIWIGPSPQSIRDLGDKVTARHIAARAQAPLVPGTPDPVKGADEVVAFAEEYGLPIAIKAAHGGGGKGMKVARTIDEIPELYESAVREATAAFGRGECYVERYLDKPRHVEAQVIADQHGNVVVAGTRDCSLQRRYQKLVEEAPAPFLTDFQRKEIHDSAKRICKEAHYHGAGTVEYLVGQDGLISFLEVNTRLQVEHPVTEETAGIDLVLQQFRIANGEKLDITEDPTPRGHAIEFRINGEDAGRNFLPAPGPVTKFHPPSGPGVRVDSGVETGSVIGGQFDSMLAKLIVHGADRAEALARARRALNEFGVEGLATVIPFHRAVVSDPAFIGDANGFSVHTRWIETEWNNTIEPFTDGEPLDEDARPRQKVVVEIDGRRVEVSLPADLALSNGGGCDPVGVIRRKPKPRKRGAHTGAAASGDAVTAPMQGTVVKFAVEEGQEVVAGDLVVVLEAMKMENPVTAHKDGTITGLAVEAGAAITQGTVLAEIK

B1: AccD5, β-subunit of the acyl-CoA carboxylase AccD5-AccA3 complex (Rv3280), his-tagged (enzyme)
chain: MTSVTDRSAHSAERSTEHTIDIHTTAGKLAELHKRREESLHPVGEDAVEKVHAKGKLTARERIYALLDEDSFVELDALAKHRSTNFNLGEKRPLGDGVVTGYGTIDGRDVCIFSQDATVFGGSLGEVYGEKIVKVQELAIKTGRPLIGINDGAGARIQEGVVSLGLYSRIFRNNILASGVIPQISLIMGAAAGGHVYSPALTDFVIMVDQTSQMFITGPDVIKTVTGEEVTMEELGGAHTHMAKSGTAHYAASGEQDAFDYVRELLSYLPPNNSTDAPRYQAAAPTGPIEENLTDEDLELDTLIPDSPNQPYDMHEVITRLLDDEFLEIQAGYAQNIVVGFGRIDGRPVGIVANQPTHFAGCLDINASEKAARFVRTCDCFNIPIVMLVDVPGFLPGTDQEYNGIIRRGAKLLYAYGEATVPKITVITRKAYGGAYCVMGSKDMGCDVNLAWPTAQIAVMGASGAVGFVYRQQLAEAAANGEDIDKLRLRLQQEYEDTLVNPYVAAERGYVDAVIPPSHTRGYIGTALRLLERKIAQLPPKKHGNVPL
B1: binds.
